Experimental findings from publication PMC9750158 (Science Advances, 2022) are described below.

For experiment [1], the target named is Sra1 (human, UniProt Q7L576 1-1253). Description: reconstitution and co-purification of subcomplexes and pentamer.
In experiment [2] the target is T1, WAVE1(1-230) (human, UniProt Q92558 1-230).
T1 sequence: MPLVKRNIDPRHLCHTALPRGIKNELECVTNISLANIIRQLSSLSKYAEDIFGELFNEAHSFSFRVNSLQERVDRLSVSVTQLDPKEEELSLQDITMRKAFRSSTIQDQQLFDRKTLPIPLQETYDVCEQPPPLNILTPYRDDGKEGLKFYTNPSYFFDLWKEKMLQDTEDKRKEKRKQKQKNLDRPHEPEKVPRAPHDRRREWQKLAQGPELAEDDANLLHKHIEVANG
The description is as above.

The target in experiment [3] is Sra1/Nap1 dimer (human, UniProt Q7L576;Q9Y2A7). Described as above.
Experiment [4] concerns the target ∆WRC230 with Sra1 W845A/Y849A (∆M#3) (human, UniProt Q7L576;Q9Y2A7;Q92558;Q9NYB9;Q8WUW1, W845A | Y849A). Description: pull-down.

Sra1/Nap1 dimer, sequence (Q7L576 whole entry, one chain of several): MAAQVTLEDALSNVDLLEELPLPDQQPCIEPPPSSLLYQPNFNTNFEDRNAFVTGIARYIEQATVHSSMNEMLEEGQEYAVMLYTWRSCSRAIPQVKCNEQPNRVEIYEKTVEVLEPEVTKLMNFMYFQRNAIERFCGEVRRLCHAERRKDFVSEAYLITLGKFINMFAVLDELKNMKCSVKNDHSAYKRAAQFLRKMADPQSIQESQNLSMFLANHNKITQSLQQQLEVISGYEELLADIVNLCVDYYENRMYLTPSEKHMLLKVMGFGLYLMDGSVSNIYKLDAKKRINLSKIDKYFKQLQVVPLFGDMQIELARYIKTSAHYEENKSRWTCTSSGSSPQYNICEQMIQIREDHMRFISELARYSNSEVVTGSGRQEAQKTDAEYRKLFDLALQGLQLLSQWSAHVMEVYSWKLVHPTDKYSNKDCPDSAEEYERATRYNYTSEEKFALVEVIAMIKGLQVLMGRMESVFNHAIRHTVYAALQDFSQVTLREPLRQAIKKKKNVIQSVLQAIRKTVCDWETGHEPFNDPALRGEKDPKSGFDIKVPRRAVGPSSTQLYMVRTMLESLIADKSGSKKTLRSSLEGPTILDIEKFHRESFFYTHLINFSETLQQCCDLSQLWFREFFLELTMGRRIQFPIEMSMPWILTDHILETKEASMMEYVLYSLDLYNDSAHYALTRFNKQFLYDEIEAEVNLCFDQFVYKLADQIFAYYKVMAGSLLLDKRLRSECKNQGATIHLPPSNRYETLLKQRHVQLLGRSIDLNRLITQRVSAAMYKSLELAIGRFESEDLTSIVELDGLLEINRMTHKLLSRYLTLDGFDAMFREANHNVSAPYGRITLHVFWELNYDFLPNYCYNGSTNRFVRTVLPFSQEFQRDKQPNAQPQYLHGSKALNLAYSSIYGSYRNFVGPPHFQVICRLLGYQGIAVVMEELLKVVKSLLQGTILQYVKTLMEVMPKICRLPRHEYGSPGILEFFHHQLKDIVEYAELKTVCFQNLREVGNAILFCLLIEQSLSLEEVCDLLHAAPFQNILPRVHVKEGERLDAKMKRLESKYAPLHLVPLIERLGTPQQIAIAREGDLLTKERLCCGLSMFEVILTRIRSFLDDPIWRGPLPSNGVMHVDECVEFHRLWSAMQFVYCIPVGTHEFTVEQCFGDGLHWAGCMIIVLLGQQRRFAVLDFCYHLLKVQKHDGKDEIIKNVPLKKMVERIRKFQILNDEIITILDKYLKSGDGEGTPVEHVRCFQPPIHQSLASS
Sra1, sequence (Q7L576 whole entry): as the sequence (Q7L576 whole entry, one chain of several) above
∆WRC230 with Sra1 W845A/Y849A (∆M#3), sequence (Q7L576 whole entry W845A/Y849A, one chain of several): as the sequence (Q7L576 whole entry, one chain of several) above, with W845A, Y849A counted along it

B1: Nap1 (natural protein)
chain: MSRSVLQPSQQKLAEKLTILNDRGVGMLTRLYNIKKACGDPKAKPSYLIDKNLESAVKFIVRKFPAVETRNNNQQLAQLQKEKSEILKNLALYYFTFVDVMEFKDHVCELLNTIDVCQVFFDITVNFDLTKNYLDLIITYTTLMILLSRIEERKAIIGLYNYAHEMTHGASDREYPRLGQMIVDYENPLKKMMEEFVPHSKSLSDALISLQMVYPRRNLSADQWRNAQLLSLISAPSTMLNPAQSDTMPCEYLSLDAMEKWIIFGFILCHGILNTDATALNLWKLALQSSSCLSLFRDEVFHIHKAAEDLFVNIRGYNKRINDIRECKEAAVSHAGSMHRERRKFLRSALKELATVLSDQPGLLGPKALFVFMALSFARDEIIWLLRHADNMPKKSADDFIDKHIAELIFYMEELRAHVRKYGPVMQRYYVQYLSGFDAVVLNELVQNLSVCPEDESIIMSSFVNTMTSLSVKQVEDGEVFDFRGMRLDWFRLQAYTSVSKASLGLADHRELGKMMNTIIFHTKMVDSLVEMLVETSDLSIFCFYSRAFEKMFQQCLELPSQSRYSIAFPLLCTHFMSCTHELCPEERHHIGDRSLSLCNMFLDEMAKQARNLITDICTEQCTLSDQLLPKHCAKTISQAVNKKSKKQTGKKGEPEREKPGVESMRKNRLVVTNLDKLHTALSELCFSINYVPNMVVWEHTFTPREYLTSHLEIRFTKSIVGMTMYNQATQEIAKPSELLTSVRAYMTVLQSIENYVQIDITRVFNNVLLQQTQHLDSHGEPTITSLYTNWYLETLLRQVSNGHIAYFPAMKAFVNLPTENELTFNAEEYSDISEMRSLSELLGPYGMKFLSESLMWHISSQVAELKKLVVENVDVLTQMRTSFDKPDQMAALFKRLSSVDSVLKRMTIIGVILSFRSLAQEALRDVLSYHIPFLVSSIEDFKDHIPRETDMKVAMNVYELSSAAGLPCEIDPALVVALSSQKSENISPEEEYKIACLLMVFVAVSLPTLASNVMSQYSPAIEGHCNNIHCLAKAINQIAAALFTIHKGSIEDRLKEFLALASSSLLKIGQETDKTTTRNRESVYLLLDMIVQESPFLTMDLLESCFPYVLLRNAYHAVYKQSVTSSA
Turning to B1, the binding result in experiment [1] is given as “binds”.

B2: HSPC300 (natural protein)
chain: MAGQEDPVQREIHQDWANREYIEIITSSIKKIADFLNSFDMSCRSRLATLNEKLTALERRIEYIEARVTKGETLT
B2: the binding result in experiment [2] is “binds”.

B3: Abi2(1-158) (domain or fragment)
chain: MAELQMLLEEEIPGGRRALFDSYTNLERVADYCENNYIQSADKQRALEETKAYTTQSLASVAYLINTLANNVLQMLDIQASQLRRMESSINHISQTVDIHKEKVARREIGILTTNKNTSRTHKIIAPANLERPVRYIRKPIDYTILDDIGHGVKWLLR
With B3, the binding result in experiment [2] is given as “binds”.

B4: WAVE1(1-230)/Abi2(1-158)/HSPC300 trimer (complex)
chain 1: MPLVKRNIDPRHLCHTALPRGIKNELECVTNISLANIIRQLSSLSKYAEDIFGELFNEAHSFSFRVNSLQERVDRLSVSVTQLDPKEEELSLQDITMRKAFRSSTIQDQQLFDRKTLPIPLQETYDVCEQPPPLNILTPYRDDGKEGLKFYTNPSYFFDLWKEKMLQDTEDKRKEKRKQKQKNLDRPHEPEKVPRAPHDRRREWQKLAQGPELAEDDANLLHKHIEVANG
chain 2: MAELQMLLEEEIPGGRRALFDSYTNLERVADYCENNYIQSADKQRALEETKAYTTQSLASVAYLINTLANNVLQMLDIQASQLRRMESSINHISQTVDIHKEKVARREIGILTTNKNTSRTHKIIAPANLERPVRYIRKPIDYTILDDIGHGVKWLLR
chain 3: MAGQEDPVQREIHQDWANREYIEIITSSIKKIADFLNSFDMSCRSRLATLNEKLTALERRIEYIEARVTKGETLT
With B4, the binding result in experiment [3] is “binds”.

B5: GST-Arf1 (Arf1^∆N17) (natural protein)
chain: not shown
With B5, the binding result in experiment [4] is listed as “binds”.
